Numbering of substitutions follows the chain as printed. Starred links: 1 amine or outer side, 2 acyl side, 3 side chain; linkers in the order of their positions; H or OH if unused. Groups on a side chain read outwards from the residue. γGlu = O=C(O)[C@H](CCC(=O)[*:2])N[*:1]; oleoyl = alkanoyl with 18 carbons
B1: His-Ala-Glu-Gly-Thr-Phe-Thr-Ser-Asp-Val-Ser-Cys-Tyr-Leu-Glu-Gly-Gln-Ala-Ala-Lys[N-ϵ-(N-α-oleoyl-L-γ-glutamyl)]-Glu-Phe-Ile-Ala-Trp-Leu-Val-Arg-Gly-Arg-Gly-His-Gly-Glu-Gly-Thr-Phe-Thr-Ser-Asp-Val-Ser-S … (peptide)
chain: HAEGTFTSDVSCYLEGQAAK([γGlu-oleoyl])EFIAWLVRGRGHGEGTFTSDVSSYLEGQAAREFIAWLVRGRG-OH
B2: 2G9 series 70: disulfide-linked homodimer of monomer SEQ ID NO: 70 (peptide)
chain: HAEGTFTSDVSCYLEGQAAK([γGlu-oleoyl])EFIAWLVRGRGHGEGTFTSDVSSYLEGQAAREFIAWLVRGRG
modifications: also: disulfide-linked homodimer, feature at 62: C-terminal
B3: 2G2 series 10: disulfide-linked homodimer of monomer SEQ ID NO: 10 (peptide)
chain 1: HAEGTFTSDVCSYLEGQAAXEFIAWLVRGRG
chain 2: B3 chain 1
modifications: not fully specified; disulfide-linked homodimer; Sequence is synthesized; (20)..(20) Xaa is 26Lys[N-e-(N-a-oleoyl-L-g-glutamyl)]; (31)..(31) N-terminal
B4: 2G2 series 15: disulfide-linked homodimer of monomer SEQ ID NO: 15 (peptide)
chain 1: B3 chain 1 with A2X
chain 2: B3 chain 1 with A2X
modifications: not fully specified; disulfide-linked homodimer; Sequence is synthesized; (2)..(2) Xaa is bAib; (20)..(20) Xaa is 26Lys[N-e-(N-a-oleoyl-L-g-glutamyl)]; (31)..(31) N-terminal
B5: 2G2 series 18: disulfide-linked homodimer of monomer SEQ ID NO: 18 (peptide)
chain 1: B3 chain 1 with A2X
chain 2: B3 chain 1 with A2X
modifications: not fully specified; disulfide-linked homodimer; Sequence is synthesized; (2)..(2) Xaa is bAla; (20)..(20) Xaa is 26Lys[N-e-(N-a-oleoyl-L-g-glutamyl)]; (31)..(31) N-terminal

Tested on: Normal Kunming (KM) mice
Test: multiple OGTT (mOGTT): hypoglycemic duration after a single administration
Format: in vivo
Details: single injection at the same dose (1.126 nmol), subcutaneous
Description: • 1. Methods: Normal Kunming (KM) mice (purchased from Guangdong Animal Center) were used for oral glucose tolerance test (OGTT) to obtain the hypoglycemic activity and durability of drug. […] The blood glucose meter and blood glucose test paper were from Bayer […]. The average blood glucose of each group was used as an evaluation standard: When the average blood glucose of experimental group was higher than that of the NaCl control group for two times, the measurement stopped and the hypoglycemic period compared to the blank control group was the effective duration. • 2. Results • 2.1 single OGTTs: after a single administration, the mice were orally administered glucose once and measured the blood glucose from the tail blood at 0, 10, 20, 40, 60 and 120 min. […] The duration of each monomer group was about 1⁄2-1⁄4 of the duration of its corresponding dimer group. […] Therefore, the 2G3 peptide was selected for treating type II diabetes (T2D) in vivo and subsequent experiments.

Row | Molecule | Hypoglycemic (day) (monomeric peptides) | Hypoglycemic duration
1 | B1 | 5 (G9 peptide) day | –
2 | B2 | – | 11 days
3 | B3 | – | 8 days
4 | B4 | – | 10 days
5 | B5 | – | 9 days

Source: patent US20240150423A1, “GLP-1 ANALOGUE-MODIFIED DIMERS WITH DIFFERENT CONFIGURATIONS, PREPARATION METHOD THEREOF, AND APPLICATION THEREOF IN TREATMENT OF TYPE II DIABETES” (Nanjing Finepeptide Biopharmaceutical Co.,Ltd, priority 2019, published 2024)
